# Test results taken from patent US20120088722A1 (PROTEAPEX THERAPEUTICS, published 2012).
# Ends that are not written are not given here.
# What was measured:
# [1] = biological target: T1, recombinant protein of the calcium-binding, EGF-like domains of LTBP1 (CE-LTBP1); assay: fluorescent peptide (100 nM) binding to plate-dried recombinant CE-LTBP1, reference scrambled peptide
# T1 construct: It was dried onto poly-L-lysine coated wells
# Protocol: (§1) Peptide binding assay—Twenty-five micrograms of total equal protein from cartilage CHAPS extracts or five nanograms recombinant protein of the calcium-like EGF binding domain of LTBP1 (a kind gift of Sarah Dallas) or hypertrophic cartilage from day 17 avian embryo sterna and tibial growth plate cartilage from day 14 newborn rat pups were extracted with 0.5% CHAPS buffer and eluates immunoprecipitated with polyclonal antibody to LTBP1 and then samples were plated onto poly-L-lysine coated 96 well plates. After overnight drying, the protein-coated wells were incubated with 100 nM fluorescent-labeled peptide in Tris buffered saline [150 mM NaCl, 10 mM Tris, pH 8.0] and 20% horse serum for 4 hours at 16° C. After incubation, the wells are washed twice with binding buffer, the protein layer solubilized with 5N NaOH and fluorescence bound measured at 495 nm excitation and 520 nm emission on the LabSystems Fluoroskan Ascent CF plate reader. Statistical analyses and graphing were performed with Prism GraphPad software (ANOVA with Turkey's Analysis). A scrambled peptide of the same amino acid composition was prepared as a negative control. Competition assays were conducted in the presence of 10-fold more (1 μM) naked peptide.
# [2] = biological target: T2, LTBP1 immunoprecipitated from avian hypertrophic cartilage (avian (chick embryo)); assay: fluorescent peptide (100 nM) binding to plate-dried LTBP1 immunoprecipitate of avian hypertrophic cartilage, reference scrambled peptide
# T2 construct: An immunoprecipitate: proteins associated with LTBP1 (TGFβ LLC components) may be present; also called hypertrophic cartilage immunoprecipitates
# Protocol: as §1
# [3] = biological target: T3, LTBP1 immunoprecipitated from rat tibial growth plate cartilage (rat, UniProt Q00918 21-1712, limits assumed); assay: fluorescent peptide (100 nM) binding to plate-dried LTBP1 immunoprecipitate of rat tibial growth plate cartilage, reference scrambled peptide
# T3 construct: An immunoprecipitate: proteins associated with LTBP1 may be present; also called rat tibial growth plate cartilage immunoprecipitated extracts
# T3 sequence (Q00918 21-1712 limits assumed): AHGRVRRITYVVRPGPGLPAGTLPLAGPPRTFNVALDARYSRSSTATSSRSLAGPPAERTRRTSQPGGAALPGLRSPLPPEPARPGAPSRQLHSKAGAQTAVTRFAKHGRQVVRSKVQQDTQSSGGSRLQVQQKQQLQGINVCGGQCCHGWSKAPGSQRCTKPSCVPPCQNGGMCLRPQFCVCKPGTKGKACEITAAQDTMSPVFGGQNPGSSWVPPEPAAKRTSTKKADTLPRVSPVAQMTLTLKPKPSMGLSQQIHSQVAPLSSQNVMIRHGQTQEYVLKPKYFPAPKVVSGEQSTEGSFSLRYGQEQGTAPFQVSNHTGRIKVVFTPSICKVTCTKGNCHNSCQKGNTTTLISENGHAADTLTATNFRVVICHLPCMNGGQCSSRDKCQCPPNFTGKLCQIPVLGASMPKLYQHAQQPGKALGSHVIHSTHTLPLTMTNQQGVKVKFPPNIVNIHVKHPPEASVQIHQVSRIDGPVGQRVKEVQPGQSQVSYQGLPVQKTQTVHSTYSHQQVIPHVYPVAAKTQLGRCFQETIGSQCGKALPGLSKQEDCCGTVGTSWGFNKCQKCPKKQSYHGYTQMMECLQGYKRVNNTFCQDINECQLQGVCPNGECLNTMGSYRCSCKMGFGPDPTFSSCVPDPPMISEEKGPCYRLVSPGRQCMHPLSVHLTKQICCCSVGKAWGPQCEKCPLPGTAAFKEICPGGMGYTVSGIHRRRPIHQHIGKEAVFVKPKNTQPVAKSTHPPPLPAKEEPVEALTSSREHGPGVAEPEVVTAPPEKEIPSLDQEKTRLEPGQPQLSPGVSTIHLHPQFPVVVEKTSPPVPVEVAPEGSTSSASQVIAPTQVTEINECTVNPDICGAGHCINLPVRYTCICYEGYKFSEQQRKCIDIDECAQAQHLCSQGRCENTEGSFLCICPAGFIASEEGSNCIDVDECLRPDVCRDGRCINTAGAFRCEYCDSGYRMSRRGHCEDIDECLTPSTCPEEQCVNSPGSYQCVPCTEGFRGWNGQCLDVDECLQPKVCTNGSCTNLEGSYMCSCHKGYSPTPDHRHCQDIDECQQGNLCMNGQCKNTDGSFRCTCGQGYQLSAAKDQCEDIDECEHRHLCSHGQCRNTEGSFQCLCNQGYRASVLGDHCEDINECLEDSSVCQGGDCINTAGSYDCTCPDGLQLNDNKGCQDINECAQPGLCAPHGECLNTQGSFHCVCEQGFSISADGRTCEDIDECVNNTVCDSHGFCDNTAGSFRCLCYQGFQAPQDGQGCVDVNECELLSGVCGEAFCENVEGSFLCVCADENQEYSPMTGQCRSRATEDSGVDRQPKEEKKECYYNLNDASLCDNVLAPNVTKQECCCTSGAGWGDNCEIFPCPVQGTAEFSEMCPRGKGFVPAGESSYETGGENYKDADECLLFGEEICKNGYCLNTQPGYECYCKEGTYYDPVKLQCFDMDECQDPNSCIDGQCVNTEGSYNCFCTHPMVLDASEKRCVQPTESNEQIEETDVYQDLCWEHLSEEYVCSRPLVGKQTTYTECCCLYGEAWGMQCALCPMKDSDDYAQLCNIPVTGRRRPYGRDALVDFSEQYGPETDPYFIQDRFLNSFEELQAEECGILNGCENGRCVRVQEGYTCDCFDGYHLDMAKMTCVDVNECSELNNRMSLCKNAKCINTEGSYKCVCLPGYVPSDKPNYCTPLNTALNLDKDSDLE
# Protocol: as §1
binder,measurement,setting,value
"ELGLPKEVKKISAAVHFED (also: fluorescent-labeled in binding assay, label and position not given here, also called MPP13-19; pxpt 001-1) [MMP13-19 peptide (amino acids 93-111 of SEQ ID NO: 1)]",fold binding over scrambled peptide,[1],27 fold
same,fold binding over scrambled control,[2],10.5 fold
same,fold binding over scrambled control,[3],3.9 fold
